From the supplement of paper PMC10567573

B1: C2orf65 (parent)
chain: QLDWDELETNQQHFHALCHSLLVS

Variants of: B1
Experiment: protein stability index of a GFP-peptide fusion (GPS, HEK-293T) (PSI 1-6); higher = more stable
Conditions: c terminus: a fixed tail appended
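Further: lentivirally expressed fusions sorted by FACS into six bins by GFP to DsRed ratio, PSI derived from sequencing read proportions per bin multiplied by bin number.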

Protein stability index, by site and new letter:
N10: F 1.69, E 2.33, D 2.87, V 1.62, W 2.25, I 2.19, C 1.76, L 1, P 2.31, A 2.04, K 2, H 2.17, Y 1.99, T 1.55, G 2.82, M 2.18, Q 2.07, R 2.81, S 2.2
T9: H 2.54, F 1.8, I 1.69, N 1.56, E 2.88, Q 2.75, A 2.71, L 1.52, M 2.35, S 2.37, V 3.67, P 1.91, K 1.97, C 2.21, R 1.61, W 1.81, Y 1.84, G 2.07, D 2.39
L7: K 2.79, I 1.82, H 2.18, S 2.8, C 2.5, A 2.33, R 2.16, Q 2.79, W 1.33, E 3.03, Y 2.27, N 2.84, G 2.6, V 2.36, F 2.13, M 1.94, T 2.16, P 2.84, D 3.63
Q12: A 1.84, G 2.69, L 1.67, H 1.92, V 2.17, Y 1.48, N 2.1, S 2.62, C 2.06, M 1.83, D 2.37, F 1.45, T 2.13, P 2.73, E 2.43, W 2.6, I 2.55, R 2.37, K 1.84
E8: D 2.11, I 2.01, S 1.67, H 1.95, V 1.21, P 1.87, N 2.07, A 1.57, G 1.64, K 1.39, L 2.31, C 1.59, F 1.57, R 1.99, M 2.73, W 2.9, Y 1.87, T 1.61, Q 1.89
D3: S 1.57, H 1.92, G 2.85, N 2.01, V 1.73, L 1.45, R 1.85, Y 1.47, M 1.05, K 1.83, Q 2.1, P 2.07, W 3.03, T 2.59, I 2.23
H19: C 2.21, R 1.94, V 1.96, S 2.07, G 2.17, A 1.88, T 2.02, D 2.94, Y 1.94, N 2.17, Q 2.67, I 1.79, E 2.93, L 1.04, M 1.66, K 2.15, F 1.69, W 1.04, P 2.65
L17: E 3.69, Y 2.05, V 1.74, M 2.38, C 2.58, Q 3.02, K 2.69, P 3.92, T 3.57, N 3.12, D 4.07, H 2.6, W 2.21, I 2.14, R 2.68, G 2.43, F 1.9, S 2.58, A 2.75
F14: H 2.67, N 3.19, A 3.53, G 3.51, Q 3.42, L 2.75, W 2.18, K 3.26, M 2.72, S 2.91, R 2.44, E 3.58, T 3.32, D 3.95, C 2.46, P 2.87, I 2.48, V 2.79, Y 2.34
E6: A 2.04, C 1.95, M 1.83, T 1.82, N 1.79, R 1.96, V 2.32, K 1.46, D 1.9, H 1.57, P 2.5, G 2.13, Y 1.44, S 1.66, L 2.34, I 1.81, Q 1.84, F 3.45, W 2.55
A16: I 2.2, S 2.33, N 1.95, E 3.07, R 2.22, L 1.63, W 1.53, D 2.58, V 1.86, Q 2.27, M 1.95, P 2.43, Y 3.02, K 2.91, H 2.35, C 2.31, G 2.41, F 2.44, T 1.57
W4: K 2.85, S 3.2, L 2.4, Q 3.35, P 2.02, G 2.99, F 2.54, M 2.98, H 2.69, C 3.19, I 3.03, R 2.77, A 2.93, Y 2.56, D 3.18, T 3.14, N 2.78, V 3.11
Q11: I 1.39, R 2.29, H 2.07, E 2.39, A 1.66, D 2.56, M 2.39, Y 1.39, V 1.45, P 2.02, G 2.62, S 1.79, K 1.97, N 2.34, W 2.01, L 2.23, F 2.13, T 2.04, C 1.9
C18: G 2.2, V 2.21, K 3.2, E 3.64, Y 2.36, F 2.27, Q 2.76, R 2.48, N 2.96, H 2.65, W 2.14, I 1.66, T 2.25, P 2.99, S 2.88, L 1.35, D 3.62, A 2.11, M 2.11
D5: F 2.47, N 1.49, M 1.95, Y 2.31, V 1.66, S 1.83, K 2, H 2.04, T 2.18, R 1.95, W 1.18, A 2.01, Q 1.57, G 2.07, I 1.58, L 1.22, E 2.54, C 1.55, P 2.34
S20: E 1.93, C 1.5, A 1.79, M 2.27, G 2.21, K 2.04, I 2.13, N 2.61, F 1.43, T 1.95, D 2.98, L 2.19, P 2.33, H 2.57, Q 2.03, R 1.91
H13: K 2.02, R 1.88, V 1.85, P 2.63, D 2.37, G 2.39, L 1.99, S 1.98, M 1.65, E 2.89, T 2.51, N 2.35, A 2.16, Y 2.5, C 2.31, W 1.55, Q 2.36, F 2.15, I 1.71
H15: V 2.39, W 1.74, C 1.66, L 1.61, M 2.33, D 2.64, P 2.12, G 2.48, A 1.92, I 2.36, N 2.26, F 1.36, K 2.42, T 2.28, S 1.85, E 2.78, Q 1.72, Y 1.82, R 1.71
